Here are results for 21 molecules from article PMC4466236, “A Novel AT-Rich DNA Recognition Mechanism for Bacterial Xenogeneic Silencer MvaT”.

Bounds are passed on as bounds.

In data set [1] the target is T1, MvaT (Pseudomonas aeruginosa PAO1) (UniProt Q9HW86).
T1 sequence: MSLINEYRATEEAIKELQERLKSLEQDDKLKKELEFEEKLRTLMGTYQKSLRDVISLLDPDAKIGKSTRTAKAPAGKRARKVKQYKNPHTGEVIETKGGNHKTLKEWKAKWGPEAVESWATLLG

Data set [2] concerns the target T2, MvaT full-length (Pseudomonas aeruginosa PAO1?) (UniProt Q9HW86).
T2 sequence: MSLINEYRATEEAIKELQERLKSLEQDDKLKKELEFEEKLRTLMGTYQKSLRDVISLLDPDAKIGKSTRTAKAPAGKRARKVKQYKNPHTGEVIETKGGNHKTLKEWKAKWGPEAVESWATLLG
The experiment in a line: EMSA. The settings on record: EMSA: 8 mM Tris pH 8.0, 15 mM HEPES pH 7.9, 40 mM NaCl, 40 mM KCl, 1.4 mM EDTA, 0.5 mM DTT, 9.95% glycerol, room temp, NMR: 50 mM Na phosphate, 50 mM NaCl.

The test system of data set [3] is MvaT full-length (Pseudomonas aeruginosa PAO1?). The experiment in a line: EMSA. Conditions: EMSA: 8 mM Tris pH 8.0, 15 mM HEPES pH 7.9, 40 mM NaCl, 40 mM KCl, 1.4 mM EDTA, 0.5 mM DTT, 9.95% glycerol, room temp, NMR: 50 mM Na phosphate, 50 mM NaCl.
For data set [4] the test system is unchanged. As to the kind of experiment: competition. Conditions: EMSA: 8 mM Tris pH 8.0, 15 mM HEPES pH 7.9, 40 mM NaCl, 40 mM KCl, 1.4 mM EDTA, 0.5 mM DTT, 9.95% glycerol, room temp, NMR: 50 mM Na phosphate, 50 mM NaCl.
In a further data set the target is T3, MvaTctd K102A (Pseudomonas aeruginosa PAO1, UniProt Q9HW86 77-124, K102A).
T3 chain: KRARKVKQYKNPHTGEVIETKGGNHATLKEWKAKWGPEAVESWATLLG
As to the kind of experiment: ITC; 283 K; slightly lower affinity, Kd +70%; EMSA: 8 mM Tris pH 8.0, 15 mM HEPES pH 7.9, 40 mM NaCl, 40 mM KCl, 1.4 mM EDTA, 0.5 mM DTT, 9.95% glycerol, room temp; NMR: 50 mM Na phosphate, 50 mM NaCl, pH 6.0, 298 K; ITC: 283 K, 0.15 mM DNA in cell, buffer not stated (protein purified in NMR buffer). Conditions: protein: recombinant; tags: C-terminal His6; blunt, self-complementary.

In the next data set the target is T4, MvaTctd K108A (Pseudomonas aeruginosa PAO1, UniProt Q9HW86 77-124, K108A).
T4 chain: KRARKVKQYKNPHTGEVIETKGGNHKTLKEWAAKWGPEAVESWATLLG
The experiment in a line: ITC; 283 K; EMSA: 8 mM Tris pH 8.0, 15 mM HEPES pH 7.9, 40 mM NaCl, 40 mM KCl, 1.4 mM EDTA, 0.5 mM DTT, 9.95% glycerol, room temp; NMR: 50 mM Na phosphate, 50 mM NaCl, pH 6.0, 298 K; ITC: 283 K, 0.15 mM DNA in cell, buffer not stated (protein purified in NMR buffer). The settings on record: protein: recombinant; tags: C-terminal His6; blunt, self-complementary.

A further data set addresses T5, MvaTctd N100A (Pseudomonas aeruginosa PAO1, UniProt Q9HW86 77-124, N100A).
T5 chain: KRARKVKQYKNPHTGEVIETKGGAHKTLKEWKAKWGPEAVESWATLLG
Described as above. Conditions: protein: recombinant; tags: C-terminal His6; blunt, self-complementary.

A further data set concerns the target T6, MvaTctd WT (Pseudomonas aeruginosa PAO1, UniProt Q9HW86 77-124).
T6 chain: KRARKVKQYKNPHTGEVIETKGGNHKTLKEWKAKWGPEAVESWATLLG
The data set is described as above. The settings on record: protein: recombinant; tags: C-terminal His6; blunt, self-complementary.

The target of the next data set is T7, MvaTctd K105A (Pseudomonas aeruginosa PAO1, UniProt Q9HW86 77-124, K105A).
T7 chain: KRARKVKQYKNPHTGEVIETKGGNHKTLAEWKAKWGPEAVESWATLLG
The description is as above. Conditions: protein: recombinant; tags: C-terminal His6; blunt, self-complementary.

The next data set has as its target T8, MvaTctd K81A (Pseudomonas aeruginosa PAO1, UniProt Q9HW86 77-124, K81A).
T8 chain: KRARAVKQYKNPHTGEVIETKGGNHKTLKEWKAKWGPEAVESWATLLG
As to the kind of experiment: NMR titration; similar to WT; EMSA: 8 mM Tris pH 8.0, 15 mM HEPES pH 7.9, 40 mM NaCl, 40 mM KCl, 1.4 mM EDTA, 0.5 mM DTT, 9.95% glycerol, room temp; NMR: 50 mM Na phosphate, 50 mM NaCl, pH 6.0, 298 K; ITC: 283 K, 0.15 mM DNA in cell, buffer not stated (protein purified in NMR buffer). The settings on record: protein: recombinant; tags: C-terminal His6; blunt, self-complementary.

The next data set has as its target T9, MvaTctd K97A (Pseudomonas aeruginosa PAO1, UniProt Q9HW86 77-124, K97A).
T9 chain: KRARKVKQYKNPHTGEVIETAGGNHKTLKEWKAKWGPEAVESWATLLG
The data set is described as above. Conditions: protein: recombinant; tags: C-terminal His6; blunt, self-complementary.

A further data set deals with T10, MvaTctd R80A (Pseudomonas aeruginosa PAO1, UniProt Q9HW86 77-124, R80A).
T10 chain: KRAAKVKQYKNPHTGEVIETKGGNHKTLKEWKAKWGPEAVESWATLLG
As to the kind of experiment: ITC; 283 K; EMSA: 8 mM Tris pH 8.0, 15 mM HEPES pH 7.9, 40 mM NaCl, 40 mM KCl, 1.4 mM EDTA, 0.5 mM DTT, 9.95% glycerol, room temp; NMR: 50 mM Na phosphate, 50 mM NaCl, pH 6.0, 298 K; ITC: 283 K, 0.15 mM DNA in cell, buffer not stated (protein purified in NMR buffer). The settings on record: protein: recombinant; tags: C-terminal His6; blunt, self-complementary.

In turn, “AAATATAT (double strand) [8-mer AAATATAT]” showed a binding signal (PBM E-score (-0.5 to 0.5)) in data set [1] of 0.482.
With “AATATATA (double strand) [8-mer AATATATA]”, the binding signal (PBM E-score (-0.5 to 0.5)) in [1] stood at 0.486.
Still for that read-out and setting: to “AATATATT (double strand) [8-mer AATATATT]” belongs 0.485.
For the molecule “AATATTAA (double strand) [8-mer AATATTAA]”, the binding signal (PBM E-score (-0.5 to 0.5)) in data set [1] amounted to 0.478.
On the same count and under the same terms, for “ATATAATA (double strand) [8-mer ATATAATA]” the value was 0.484; for “ATATATAA (double strand) [8-mer ATATATAA]”, 0.487.
“ATATATAT (double strand) [8-mer ATATATAT]” came in with a binding signal (PBM E-score (-0.5 to 0.5)) in data set [1] of 0.491.
On the same count and under the same terms, to “ATATATTA (double strand) [8-mer ATATATTA]” belongs 0.489.
In data set [1], “ATATTAAT (double strand) [8-mer ATATTAAT]” returned a binding signal (PBM E-score (-0.5 to 0.5)) of 0.484.
On to “CCGCAGGTGGCTGAACAGGCCGTGCGCTGGCTGGTCGAGCTGCAGGGCGGCGCCGACGACGAACGCCTGCGCCAGGCCTGGCAGCGCTGGCGCCAGGCGGCCCCGGAACACGAGCAGGCCTGGCGCCACATCGAGGCGGTCAACCAGCGCCTGGCCGGGATAGGCACGCCACTGGCCCTGGCCGCCATCAACGCACCGCATTCG (double strand) [PA3900 204 bp fragment]”, for which the Kd in data set [2] was 154 nM.
PA3900 204 bp fragment: in data set [3] (apparent Kd), the Kd worked out at 154 nM.
PA3900 204 bp fragment, unlabeled: the binding (fold molar excess) in [4] was more than 200.
On to “TATATATA (double strand) [8-mer TATATATA]”, for which the binding signal (PBM E-score (-0.5 to 0.5)) in data set [1] came to 0.493.
In [1], “TATATTAA (double strand) [8-mer TATATTAA]” showed a binding signal (PBM E-score (-0.5 to 0.5)) of 0.482.
The same measure, in the same setting: to “TATTAATA (double strand) [8-mer TATTAATA]” belongs 0.481; to “TATTATAA (double strand) [8-mer TATTATAA]”, 0.48.
Still for that read-out and setting: for “TTAATTAA (double strand) [8-mer TTAATTAA]” the value was 0.481; for “TTATATAA (double strand) [8-mer TTATATAA]”, 0.483.
cupA1 promoter 340 bp registered a Kd in data set [3] of 57 nM.

B1: 3AT (dsDNA)
DNA 1: CGCATATATGCG
DNA 2: CGCATATATGCG
With B1, the binding signal with MvaTctd K102A is approximately 1.7 fold Kd increase vs WT; in the data set with MvaTctd K108A, more than 10 fold Kd increase vs WT; with MvaTctd N100A, more than 3 fold Kd increase vs WT; in the data set with MvaTctd K105A, more than 3 fold Kd increase vs WT; in the data set with MvaTctd R80A, more than 10 fold Kd increase vs WT. Moreover, the Kd with MvaTctd WT was approximately 10700 nM. The binding result with MvaTctd K81A and in the data set with MvaTctd K97A was “binds” throughout.

B2: GC-rich d(CGCGCGCG)2 (dsDNA)
DNA 1: CGCGCGCG
DNA 2: CGCGCGCG
As to B2, the Kd with MvaTctd WT was approximately 360000 nM.
